Results as given in publication PMC4265154, “A reversible Renilla luciferase protein complementation assay for rapid identification of protein–protein interactions reveals the existence of an interaction network involved in xyloglucan biosynthesis in the plant Golgi apparatus” (Journal of Experimental Botany, 2014).

B2: GALACTURONOSYLTRANSFERASE1 (GAUT1) fused to hRluc fragment [F1] or [F2] (natural protein, Arabidopsis thaliana, UniProt Q9LE59 1-673, looked up)
chain: MALKRGLSGVNRIRGSGGGSRSVLVLLIFFCVFAPLCFFVGRGVYIDSSNDYSIVSVKQNLDWRERLAMQSVRSLFSKEILDVIATSTADLGPLSLDSFKKNNLSASWRGTGVDPSFRHSENPATPDVKSNNLNEKRDSISKDSIHQKVETPTKIHRRQLREKRREMRANELVQHNDDTILKLENAAIERSKSVDSAVLGKYSIWRRENENDNSDSNIRLMRDQVIMARVYSGIAKLKNKNDLLQELQARLKDSQRVLGEATSDADLPRSAHEKLRAMGQVLAKAKMQLYDCKLVTGKLRAMLQTADEQVRSLKKQSTFLAQLAAKTIPNPIHCLSMRLTIDYYLLSPEKRKFPRSENLENPNLYHYALFSDNVLAASVVVNSTIMNAKDPSKHVFHLVTDKLNFGAMNMWFLLNPPGKATIHVENVDEFKWLNSSYCPVLRQLESAAMREYYFKADHPTSGSSNLKYRNPKYLSMLNHLRFYLPEVYPKLNKILFLDDDIIVQKDLTPLWEVNLNGKVNGAVETCGESFHRFDKYLNFSNPHIARNFNPNACGWAYGMNMFDLKEWKKRDITGIYHKWQNMNENRTLWKLGTLPPGLITFYGLTHPLNKAWHVLGLGYNPSIDKKDIENAAVVHYNGNMKPWLELAMSKYRPYWTKYIKFDHPYLRRCNLHE
notes: Made in two forms, one with [F1]-HA and one with [F2]-FLAG; a chain carries one of the two; also called GAUT1-[F1]; GAUT1-[F2]; source: N. benthamiana leaves, transient expression (A. tumefaciens GV3101, with p19), in crude leaf macerate; not shown: hRluc[F1]; (Renilla luciferase residues 1-110) with HA, C-terminal, kept; hRluc[F2]; (Renilla luciferase residues 111-310) with FLAG, C-terminal, kept
B3: GALACTURONOSYLTRANSFERASE7 (GAUT7) fused to hRluc fragment [F1] or [F2] (natural protein, Arabidopsis thaliana, UniProt Q9ZVI7 1-619, looked up)
chain: MKGGGGGGGGGGGGKRRWKVLVIGVLVLVILSMLVPLAFLLGLHNGFHSPGFVTVQPASSFESFTRINATKHTQRDVSERVDEVLQKINPVLPKKSDINVGSRDVNATSGTDSKKRGLPVSPTVVANPSPANKTKSEASYTGVQRKIVSGDETWRTCEVKYGSYCLWREENKEPMKDAKVKQMKDQLFVARAYYPSIAKMPSQSKLTRDMKQNIQEFERILSESSQDADLPPQVDKKLQKMEAVIAKAKSFPVDCNNVDKKLRQILDLTEDEASFHMKQSVFLYQLAVQTMPKSLHCLSMRLTVEHFKSDSLEDPISEKFSDPSLLHFVIISDNILASSVVINSTVVHARDSKNFVFHVLTDEQNYFAMKQWFIRNPCKQSTVQVLNIEKLELDDSDMKLSLSAEFRVSFPSGDLLASQQNRTHYLSLFSQSHYLLPKLFDKLEKVVILDDDVVVQRDLSPLWDLDMEGKVNGAVKSCTVRLGQLRSLKRGNFDTNACLWMSGLNVVDLARWRALGVSETYQKYYKEMSSGDESSEAIALQASLLTFQDQVYALDDKWALSGLGYDYYINAQAIKNAAILHYNGNMKPWLELGIPNYKNYWRRHLSREDRFLSDCNVNP
notes: Made in two forms, one with [F1]-HA and one with [F2]-FLAG; a chain carries one of the two; also called GAUT7-[F1]; GAUT7-[F2]; source: N. benthamiana leaves, transient expression (A. tumefaciens GV3101, with p19), in crude leaf macerate; not shown: hRluc[F1]; (Renilla luciferase residues 1-110) with HA, C-terminal, kept; hRluc[F2]; (Renilla luciferase residues 111-310) with FLAG, C-terminal, kept

What was measured:
Experiment in all cases: split reporter (BiFC, NanoBiT); Rluc-PCA: proteins with C-terminal hRluc[F1]-HA and hRluc[F2]-FLAG co-expressed with p19 in N. benthamiana leaves for 72 h (Agrobacterium OD600 0.2 each, p19 0.05); pooled leaf discs macerated in 0.5 M NaCl, 0.1 M potassium phosphate pH 7.4, 1 mM EDTA, 0.02% BSA, protease inhibitors; 10 uM coelenterazine-h, luminescence 30 s; compared with p19 alone
[1] = target: FUCO…1 (FUT1) fused to hRluc fragment [F1] or [F2] (Arabidopsis thaliana) (UniProt Q9SWH5)
Sequence of FUCO…1 (FUT1) fused to hRluc fragment [F1] or [F2] (Arabidopsis thaliana) (Q9SWH5 whole entry, the tested form may be a part): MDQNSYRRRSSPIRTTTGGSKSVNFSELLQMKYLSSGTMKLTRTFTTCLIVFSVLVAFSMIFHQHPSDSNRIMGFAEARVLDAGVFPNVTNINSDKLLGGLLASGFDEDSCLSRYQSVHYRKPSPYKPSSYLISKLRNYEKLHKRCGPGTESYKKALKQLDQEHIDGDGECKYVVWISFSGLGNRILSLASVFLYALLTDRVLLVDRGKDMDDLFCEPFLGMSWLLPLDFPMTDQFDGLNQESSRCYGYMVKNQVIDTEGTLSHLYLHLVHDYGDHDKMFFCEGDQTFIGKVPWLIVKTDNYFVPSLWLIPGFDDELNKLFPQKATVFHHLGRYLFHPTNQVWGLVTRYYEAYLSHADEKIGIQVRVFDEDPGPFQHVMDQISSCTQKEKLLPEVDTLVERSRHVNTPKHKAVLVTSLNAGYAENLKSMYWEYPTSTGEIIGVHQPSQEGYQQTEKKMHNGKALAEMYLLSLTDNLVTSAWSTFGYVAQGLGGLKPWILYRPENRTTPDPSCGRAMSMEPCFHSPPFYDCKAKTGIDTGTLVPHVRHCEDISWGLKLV

[2] = target: the molecule itself
[3] = target: B3; details: partners not purified
[4] = target: B2; details: partners not purified

XXT5 fused to hRluc fragment [F1] or [F2] (from UniProt Q9CA75 1-457) (natural protein)
Log10(RLU) [1]: 3.76 Log10(RLU)

B1: MURUS3/KATAMARI1 (MUR3) fused to hRluc fragment [F1] or [F2] (natural protein, Arabidopsis thaliana, UniProt Q7XJ98 1-619, looked up)
chain: MFPRVSMRRRSAEVSPTEPMEKGNGKNQTNRICLLVALSLFFWALLLYFHFVVLGTSNIDKQLQLQPSYAQSQPSSVSLRVDKFPIEPHAAPSKPPPKEPLVTIDKPILPPAPVANSSSTFKPPRIVESGKKQEFSFIRALKTVDNKSDPCGGKYIYVHNLPSKFNEDMLRDCKKLSLWTNMCKFTTNAGLGPPLENVEGVFSDEGWYATNQFAVDVIFSNRMKQYKCLTNDSSLAAAIFVPFYAGFDIARYLWGYNISRRDAASLELVDWLMKRPEWDIMRGKDHFLVAGRITWDFRRLSEEETDWGNKLLFLPAAKNMSMLVVESSPWNANDFGIPYPTYFHPAKDSEVFEWQDRMRNLERKWLFSFAGAPRPDNPKSIRGQIIDQCRNSNVGKLLECDFGESKCHAPSSIMQMFQSSLFCLQPQGDSYTRRSAFDSMLAGCIPVFFHPGSAYTQYTWHLPKNYTTYSVFIPEDDVRKRNISIEERLLQIPAKQVKIMRENVINLIPRLIYADPRSELETQKDAFDVSVQAVIDKVTRLRKNMIEGRTEYDYFVEENSWKYALLEEGQREAGGHVWDPFFSKPKPGEDGSSDGNGGTTISADAAKNSWKSEQRDKTQ
notes: Made in two forms, one with [F1]-HA and one with [F2]-FLAG; a chain carries one of the two; also called MUR3-[F1]; MUR3-[F2]; source: N. benthamiana leaves, transient expression (A. tumefaciens GV3101, with p19), in crude leaf macerate; not shown: hRluc[F1]; (Renilla luciferase residues 1-110) with HA, C-terminal, kept; hRluc[F2]; (Renilla luciferase residues 111-310) with FLAG, C-terminal, kept
Log10(RLU) [2]: 4.75 Log10(RLU)

B2
Log10(RLU) [3]: 4.71 Log10(RLU)

B3
Log10(RLU) [4]: 4.71 Log10(RLU)

B4: ARABINAN DEFICIENT1 (ARAD1) fused to hRluc fragment [F1] or [F2] (natural protein, Arabidopsis thaliana, UniProt Q6DBG8 1-447, looked up)
chain: MARKSSLLKRAAIAVVSVIAIYVILNASVSRSLPSSSDLPRQLIREDDDDEGRAPIQPRVRVYMYNLPKRFTYGLIEQHSIARGGIKKPVGDVTTLKYPGHQHMHEWYLFSDLNQPEVDRSGSPIVRVSDPADADLFYVPVFSSLSLIVNAGRPVEAGSGYSDEKMQEGLVEWLEGQEWWRRNAGRDHVIPAGDPNALYRILDRVKNAVLLVSDFGRLRPDQGSFVKDVVIPYSHRVNLFNGEIGVEDRNTLLFFMGNRYRKDGGKVRDLLFQVLEKEDDVTIKHGTQSRENRRAATKGMHTSKFCLNPAGDTPSACRLFDSIVSLCVPLIVSDSIELPFEDVIDYRKFSIFVEANAALQPGFLVQMLRKIKTKKILEYQREMKSVRRYFDYDNPNGAVKEIWRQVSHKLPLIKLMSNRDRRLVLRNLTEPNCSCLCTNQTGLITSI
notes: Made in two forms, one with [F1]-HA and one with [F2]-FLAG; a chain carries one of the two; also called ARAD1-[F1]; ARAD1-[F2]; source: N. benthamiana leaves, transient expression (A. tumefaciens GV3101, with p19), in crude leaf macerate; not shown: hRluc[F1]; (Renilla luciferase residues 1-110) with HA, C-terminal, kept; hRluc[F2]; (Renilla luciferase residues 111-310) with FLAG, C-terminal, kept
Log10(RLU) [2]: 4.75 Log10(RLU)
